Reference: US20210380656A1 (ACADEMISCH ZIEKENHUIS LEIDEN H O D N LUMC, published 2021)

T1: HA-1^H, minor histocompatibility antigen encoded by HMHA1 (Rho GTPase-activating protein 45), R139H … (human)
T1 peptide: VLHDDLLEA

B1: HA-1^H TCR M7 (TCR, V domains shown)
Valpha: GQQVMQIPQYQHVQEGEDFTTYCNSSTTLSNIQWYKQRPGGHPVFLIQLVKSGEVKKQKRLTFQFGEAKKNSSLHITATQTTDVGTYFCAGNTGGFKTIFGAGTRLFVKA
Vbeta: DTGVSQDPRHKITKRGQNVTFRCDPISEHNRLYWYRQTLGQGPEFLTYFQNEAQLEKSRLLSDRFSAERPKGSFSTLEIQRTEQGDSAMYLCASSLLGNQPQHFGDGTRLSIL
B2: HA-1^H TCR M2 (TCR, V domains shown)
Valpha: GENVEQHPSTLSVQEGDSAVIKCTYSDSASNYFPWYKQELGKRPQLIIDIRSNVGEKKDQRIAVTLNKTAKHFSLHITETQPEDSAVYFCAARNSGAGSYQLTFGKGTKLSVIP
Vbeta: DTGVSQNPRHKITKRGQNVTFRCDPISEHNRLYWYRQTLGQGPEFLTYFQNEAQLEKSRLLSDRFSAERPKGSFSTLEIQRTEQGDSAMYLCASLTVQNTEAFFGQGTRLTVV
B3: Chimeric HA-1 TCR: M7 TCR alpha chain (TRAV25*01) with M2 TCR beta chain (TRBV7-9) (TCR, V domains shown)
Valpha: B1 Valpha
Vbeta: B2 Vbeta
B4: HA-1-TCR of clone M2 (M2 TRBV7-9 with M2 TRAV13-1*02) (TCR, V domains shown)
V domain 1: B2 Valpha
V domain 2: DTGVSQNPRHKITKRGQNVTFRCDPISEHNRLYWYRQTLGQGPEFLTYFQNEAQLEKSRLLSDRFSAERPKGSFSTLEIQRTEQGDSAMYLCASLTVQNTEAFFGQGTRLTVVE
notes: Expressed on transduced peripheral T cells; also called HA-1^H TCR M2
B5: Chimeric TCR: M2 TRBV7-9 beta chain with M7 TRAV25*01 alpha chain (TCR, V domains shown)
V domain 1: B1 Valpha
V domain 2: B4 V domain 2
notes: The entries include the leader
B6: HA-1-TCR of clone M7 (M7 TRBV7-9 with M7 TRAV25*01), unmodified (TCR, V domains shown)
V domain 1: B1 Valpha
V domain 2: GVSQDPRHKITKRGQNVTFRCDPISEHNRLYWYRQTLGQGPEFLTYFQNEAQLEKSRLLSDRFSAERPKGSFSTLEIQRTEQGDSAMYLCASSLLGNQPQHFGDGTRLSILE
notes: Expressed on transduced T cells; also called HA-1^H TCR M7; HA-1-TCR WT

Biological target: T1, HA-1^H, minor histocompatibility …
Assay: multimer staining

Row | Binder | binding result
1 | B1 | recognises
2 | B2 | recognises
3 | B3 | recognises

biological target: T2, HA-1 pMHC tetramer (human); assay: HA-1 pMHC tetramer staining of peripheral T cells transduced with the TCR chains, flow cytometry
T2 construct: also called HA-1 tetramer; HA-1-tetramer

Row | Binder | MFI of HA-1 pMHC tetramer [MFI]
4 | B4 | 24.2
5 | B5 | 32.6
6 | B6 | 33.8
